# From patent US20100150950A1, “HUMAN ANTIBODIES THAT BIND CD70 AND USES THEREOF” (Medarex, Inc., priority 2006, published 2010)
# T1: human CD70 expressed on the cell surface (human, UniProt P32970 1-193)
# T1 construct: also called full length CD70 on transfected CHO cells
# T1 sequence: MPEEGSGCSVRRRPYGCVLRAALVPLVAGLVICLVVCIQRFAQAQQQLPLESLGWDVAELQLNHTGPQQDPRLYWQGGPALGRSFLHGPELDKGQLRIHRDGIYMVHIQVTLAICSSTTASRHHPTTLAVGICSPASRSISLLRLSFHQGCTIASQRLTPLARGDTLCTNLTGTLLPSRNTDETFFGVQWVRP
# T2: recombinant human CD70 fused with a dual myc-His tag (human, UniProt P32970 39-193)
# T2 construct: also called recombinant myc-tagged CD70; CD70-myc-his; not shown: dual myc-His tag
# T2 sequence: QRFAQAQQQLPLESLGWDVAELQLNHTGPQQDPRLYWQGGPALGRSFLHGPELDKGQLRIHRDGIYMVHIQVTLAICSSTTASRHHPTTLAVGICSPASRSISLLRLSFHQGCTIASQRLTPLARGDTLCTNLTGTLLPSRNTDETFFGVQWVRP
# T3: CD70 (Homo sapiens, UniProt P32970)
# T3 sequence (P32970 1-193): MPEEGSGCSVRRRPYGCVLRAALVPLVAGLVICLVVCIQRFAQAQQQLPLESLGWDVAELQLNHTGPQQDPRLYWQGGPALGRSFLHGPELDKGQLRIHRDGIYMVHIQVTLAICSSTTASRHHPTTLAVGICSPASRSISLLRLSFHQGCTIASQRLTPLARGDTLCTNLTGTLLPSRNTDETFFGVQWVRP
# Tests used:
# [1] = target: T1, human CD70 expressed on the cell surface; assay: Scatchard analysis, 125I-labelled antibody on CHO cells transfected with full length CD70
# Procedure: CHO cells were transfected with full length CD70 using standard techniques and grown in RPMI media containing 10% fetal bovine serum (FBS). The cells were trypsinized and washed once in Tris based binding buffer (24 mM Tris pH 7.2, 137 mM NaCl, 2.7 mM KCl, 2 mM Glucose, 1 mM CaCl₂, 1 mM MgCl₂, 0.1% BSA) and the cells were adjusted to 2×10⁶ cells/ml in binding buffer. Millipore plates (MAFB NOB) were coated with 1% nonfat dry milk in water and stored a 4° C. overnight. The plates were washed three times with 0.2 ml of binding buffer. Fifty microliters of buffer alone was added to the maximum binding wells (total binding). Twenty-five microliters of buffer alone was added to the control wells (non-specific binding). […] Varying concentrations of unlabeled antibody at 100 fold excess was added in a volume of 25 μl to control wells and 25 μl of CD70 transfected CHO cells (2×10⁶ cells/ml) in binding buffer were added to all wells. The plates were incubated for 2 hours at 200 RPM on a shaker at 4° C. At the completion of the incubation the Millipore plates were washed three times with 0.2 ml of cold wash buffer (24 mM Tris pH 7.2, 500 mM NaCl, 2.7 mM KCl, 2 mM Glucose, 1 mM CaCl₂, 1 mM MgCl₂, 0.1% BSA.). The filters were removed and counted in a gamma counter. Evaluation of equilibrium binding was performed using single site binding parameters with the Prism software (San Diego, Calif.).
# [2] = target: T1, human CD70 expressed on the cell surface; assay: flow cytometry titration on 786-O cells, PE anti-human IgG
# Procedure: (§1) Binding of the anti-CD70 human monoclonal antibodies was assessed by incubating 5×10⁵ cells with antibody at a starting concentration of 50 μg/ml and serially diluting the antibody at a 1:3 dilution. The cells were washed and binding was detected with a PE-labeled anti-human IgG Ab. Flow cytometric analyses were performed using a FACSCalibur flow cytometry (Becton Dickinson, San Jose, Calif.).
# [3] = target: T2, recombinant human CD70 fused with a …; assay: ELISA on plate-coated recombinant myc-tagged CD70, anti-human IgG-HRP detection
# Procedure: Standard ELISA procedures were performed. The anti-CD70 human monoclonal antibodies were added at a concentration of 1 μg/ml and titrated down at 1:2 serial dilutions. Goat-anti-human IgG (Fc or kappa chain-specific) polyclonal antibody conjugated with horseradish peroxidase (HRP) was used as secondary antibody.
# [4] = target: T1, human CD70 expressed on the cell surface; assay: flow cytometry titration on A498 cells, PE anti-human IgG
# Procedure: as §1
# [5] = target: T1, human CD70 expressed on the cell surface; assay: flow cytometry on Raji cells, MFI
# Procedure: as §1, with “dilution. An isotype control antibody was used as a negative control.” for “dilution.”
# [6] = target: T1, human CD70 expressed on the cell surface; assay: cell-based or functional assay
# [7] = target: T1, human CD70 expressed on the cell surface; assay: flow cytometry on Granta 519 cells, MFI
# Procedure: as §1, with “dilution. An isotype control antibody was used as a negative control.” for “dilution.”
# [8] = target: human CD16 (FcRγIII) on effector cells (human, UniProt P08637 17-254); assay: cell-based or functional assay
# [9] = target: T1, human CD70 expressed on the cell surface; assay: flow cytometry on 786-0 cells, goat F(ab')2 anti-human IgG(Fc)-PE
# Procedure: The cells were incubated for 30 minutes on ice, washed twice in staining buffer and stained with Goat F(ab)′2-anti-human-IgG(Fc)-PE conjugate for 30 minutes. The cells were washed and resuspended in staining buffer for analysis by flow cytometry.
# [10] = target: T3, CD70; assay: Epitope binding experiments using BIAcore
# Procedure: Such cross-competing antibodies can be identified based on their ability to cross-compete with 2H5, 10B4, 8B5, 18E7, 69A7, 69A7Y or 1F4 in standard CD70 binding assays. For example, standard ELISA assays can be used in which a recombinant human CD70 protein is immobilized on the plate, one of the antibodies is fluorescently labeled and the ability of non-labeled antibodies to compete off the binding of the labeled antibody is evaluated. Additionally or alternatively, BIAcore analysis can be used to assess the ability of the antibodies to cross-compete.
# [11] = system: CD70-mediated CD27 signaling induced proliferation of human CD3+ T cells; assay: Functional blocking of CD70 costimulated T cell proliferation; format: cell-based; settings: anti-CD3 (OKT3), CHO cells with mouse CD32 and human CD70, 3 days
# From the text: This example describes the analysis and characterization of the functional blocking of CD70 costimulated T cell proliferation by anti-CD70 antibodies 1F4 IgG1, 1F4 IgG4, 2H5, 2H5 F(ab′)2 and 2H5 Fab.
# Human CD3^+ T cells were isolated from cryopreserved PBMC using MACS CD3 Microbeads and then cultured at 2×10^6 cells/ml in RPMI-1640 complete media+10% heat inactivated FCS in the presence of Mitomycin C treated CHO cells stably transfected with both mouse CD32 and human CD70. Cells were stimulated with […] anti-CD3 (clone OKT3) for 3 days, 1 μCi/well of ^3H-Thymidine was added for 6 hours and the cells were harvested. Proliferation was measured as CPM incorporated by scintillation counting.
# Chain of human CD16 (FcRγIII) on effector cells (P08637 17-254): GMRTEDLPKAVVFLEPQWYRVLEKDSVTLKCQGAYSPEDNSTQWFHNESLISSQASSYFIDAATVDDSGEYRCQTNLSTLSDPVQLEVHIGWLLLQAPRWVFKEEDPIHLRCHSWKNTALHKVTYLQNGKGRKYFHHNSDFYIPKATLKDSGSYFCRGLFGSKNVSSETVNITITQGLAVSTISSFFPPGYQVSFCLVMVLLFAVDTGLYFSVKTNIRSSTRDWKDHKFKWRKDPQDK
molecule,measurement,setting,value
"anti-CD70 human monoclonal antibody 8B5 (antibody, V domains shown, Human IgG from hybridoma) VH: QVQLVESGGGVVQPGRSLRLSCATSGFTFSDYGMHWVRQAPGKGLEWVAVIWYDGSNKYYADSVKGRFTISRDNSKKTLSLQMNSLRAEDTAVYYCARDSIMVRGDYWGQGTLVTVSS VL: DIQMTQSPSSLSASVGDRVTITCRASQGISSWLAWYQQKPEKAPKSLIYAASSLQSGVPSRFSGSGSGTDFTLTISSLQPEDFATYYCQQYNSYPLTFGGGTKVEIK",Kd,[1],~5.1 nM
"anti-CD70 human monoclonal antibody 18E7 (antibody, V domains shown, Human IgG from hybridoma) VH: QVQLVESGGGVVQPGRSLRLSCAASGFTFSDHGMHWVRQAPGKGLEWVAVIWYDGSNKYYADSVKGRFTISRDNSKNTLYLQMNSLRAEDTAVYYCARDSIMVRGDYWGQGTLVTVSS VL: DIQMTQSPSSLSASVGDRVTITCRASQGISSWLAWYQQKPEKAPKSLIYAASSLQSGVPSRFSGSGSGTDFTLTISSLQPEDFATYYCQQYNSYPLTFGGGTKVEIK",EC50 (read off the curve),[2],~7 nM
same,Kd,[1],~1.5 nM
"anti-CD70 human monoclonal antibody 10B4 (antibody, V domains shown, Human IgG from hybridoma) VH: QIQLVESGGGVVQPGRSLRLSCAASGFTFGYYAMHWVRQAPGKGLEWVAVISYDGSIKYYADSVKGRFTISRDNSKNTLYLQMNSLRAEDTAVYYCAREGPYSNYLDYWGQGTLVTVSS VL: AIQLTQSPSSLSASVGDRVTITCRASQGISSALAWYQQKPGKAPKFLIYDASSLESGVPSRFSGSGSGTDFTLTISSLQPEDFATYYCQQFNSYPFTFGPGTKVDIK",EC50 (read off the curve),[3],~0.05 µg/mL
same,EC50 (read off the curve),[2],~2 nM
same,EC50 (read off the curve),[4],~4 nM
same,Kd,[1],~1.6 nM
"anti-CD70 human monoclonal antibody 2H5 (antibody, IgG1, V domains shown, Human IgG with kappa light chain; also called HuMAb 2H5; 2H5 IgG1) VH: QVQLVESGGGVVQPGRSLRLSCAASGFTFSSYIMHWVRQAPGKGLEWVAVISYDGRNKYYADSVKGRFTISRDNSKNTLYLQMNSLRAEDTAVYYCARDTDGYDFDYWGQGTLVTVSS VL: EIVLTQSPATLSLSPGERATLSCRASQSVSSYLAWYQQKPGQAPRLLIYDASNRATGIPARFSGSGSGTDFTLTISSLEPEDFAVYYCQQRTNWPLTFGGGTKVEIK",EC50 (read off the curve),[3],~0.06 µg/mL
same,EC50,[5],1.33 nM
same,"EC50 of decrease in ^3H-thymidine incorporation, Hum-Zap internalization assay on 786-O cells",[6],0.9 nM
same,EC50,[7],1.33 nM
same,EC50 (read off the curve),[2],~5 nM
same,EC50 (read off the curve),[4],~8 nM
same,Kd,[1],~2.1 nM
"nonfucosylated anti-CD70 human monoclonal antibody 2H5 (antibody, V domains shown, also called 2H5 NF; 2H5nf) VH: QVQLVESGGGVVQPGRSLRLSCAASGFTFSSYIMHWVRQAPGKGLEWVAVISYDGRNKYYADSVKGRFTISRDNSKNTLYLQMNSLRAEDTAVYYCARDTDGYDFDYWGQGTLVTVSS VL: EIVLTQSPATLSLSPGERATLSCRASQSVSSYLAWYQQKPGQAPRLLIYDASNRATGIPARFSGSGSGTDFTLTISSLEPEDFAVYYCQQRTNWPLTFGGGTKVEIK","amount of anti-CD16 antibody 3G8 needed to reverse the inhibition of peptide specific CD8+ T cell expansion, against 2H5",[8],~1000 fold
same,"potency in lysis of activated human B cells against 2H5, ^51Cr-release ADCC assay with anti-CD16 antibody 3G8",[8],~10 fold
same,EC50 (read off the curve),[9],~0.2 µg/mL
"69A7Y: same as 69A7 with C to Y mutation at VH position 100; VH SEQ ID NO:73, VL SEQ ID NO:11 (antibody, listed as Homo sapiens, V domains shown) VH: QVQLQESGPGLVKPSETLSLTCTVSGGSVSSDYYYWSWIRQPPGKGLEWLGYIYYSGSTNYNPSLKSRVTISVDTSKNQFSLKLRSVTTADTAVYYCARGDGDYGGNYFDYWGQGTLVTVSS VL: EIVLTQSPATLSLSPGERATLSCRASQSVSSYLAWYQQKPGQAPRLLIFDASNRATGIPARFSGSGSGTDFTLTISSLEPEDFAVYYCQQRSNWPLTFGGGTKVEIK",epitope on CD70,[10],distinct epitopes
"2H5 F(ab′)2: F(ab′)2 fragment of anti-CD70 antibody 2H5 (antibody, V domains shown) VH: QVQLVESGGGVVQPGRSLRLSCAASGFTFSSYIMHWVRQAPGKGLEWVAVISYDGRNKYYADSVKGRFTISRDNSKNTLYLQMNSLRAEDTAVYYCARDTDGYDFDYWGQGTLVTVSS VL: EIVLTQSPATLSLSPGERATLSCRASQSVSSYLAWYQQKPGQAPRLLIYDASNRATGIPARFSGSGSGTDFTLTISSLEPEDFAVYYCQQRTNWPLTFGGGTKVEIK",functional blocking of CD70 costimulated T cell proliferation,[11],reduced functional blocking efficacy
"2H5 Fab: Fab fragment of anti-CD70 antibody 2H5 (antibody, V domains shown) VH: QVQLVESGGGVVQPGRSLRLSCAASGFTFSSYIMHWVRQAPGKGLEWVAVISYDGRNKYYADSVKGRFTISRDNSKNTLYLQMNSLRAEDTAVYYCARDTDGYDFDYWGQGTLVTVSS VL: EIVLTQSPATLSLSPGERATLSCRASQSVSSYLAWYQQKPGQAPRLLIYDASNRATGIPARFSGSGSGTDFTLTISSLEPEDFAVYYCQQRTNWPLTFGGGTKVEIK",functional blocking of CD70 costimulated T cell proliferation,[11],complete lack of functional blocking activity
